Laboratory results reported in the DeepSol protein solubility set.

Experiment: soluble on expression in E. coli; label from the status in PepcDB or PDB records

| Sequence | soluble on expression in E. coli |
| --- | --- |
| MEFYDARKWCHYQSPVPSYLAYVPDLSTSNFLATYARAAFETNRFWIGLSRFDYFDPYLWDNGRPVTYTNFGTGTGNFVAEHTLNGKWYLYGNGAKNVFVCSYDPAAPPTFPPPFILTTRQSTITSANSCQPGGPISFLFAYSNDLDPQVVKDSWDLSNIDDYSGYSVYAIAKFDVLEEEDIVYFLDKKLATTYVHSHLSNSSLGFNGTTTGSDSLRIIEVGNVEGIESSQFLNFQKFFNNKDVTVCGSVCLILEKRYPNDEDISKTVSLVRYYHGIVYAVSSINPSGGTQSKAIYNLTSRTNGIFCSTDPSGGNQSKTIYNLTSKTNGLCNFAKDKDIAGLVTSVPMFYPPYPIYCANVLVSGQNITELPSMYVPQSIMYYTVFASVEDHGPLDNFQSFDFSWFNSDEPRYIQHLQSNSTVMDGVTSSGVYYIAPEIYTMKVQYNYTNKMEQAMQVRVYTYDGENSADWIPYCD | not soluble |
| MGMKYLIKLKYIKPAQLAVNREQKLAEFYPIFEDGTLGRVEAKARVFLPEYSDFAKGLGFEVKKRRMITEDDYAYLRAMVYGVVMGVLRNPGDWRRLEERVLEMEPIELRYWASKFRNAYWKYKNMRKLMFLARRFMEVEMILEHHHHHH | soluble |
| MEQDINNQTGKKIFLNEECFLELDKLPQHVSVLGVSGFGKSNILLHFLKYAIDNDHPLIFVNGKGDKELITQFEHYQTSAKQLSPEDGFDTVKLVALKNTSAKIWSLDDRIATIKYNPFK | soluble |
| MAHHHHHHMSELQSLTPETAFTVASTFLAYYYSEFVKLNELARMSDLYDERSYMTLVDFRDEVPVVAHGRNAVANLLAKLDSTLGQRKVEIITVDTVALPHNCVQVICQGVMYLREYRRVFLHVFMLEPTAYRTKTYHIASDYLRFVDSEKEVIPEGAVVIAADQVAAYLEESRRRVEEEQRRQLLEFQQRIRLQQQQLQMQQQQQQQKAAAMNMPAPASRQSRPAASASRDGGRPARGERKPREPRENRGERKPREPREPRGEHKPREGEEKVAAASPSRLAGEGKKGGERGNRKPAAAANAAKGTADTAAATPAPAAVRKPRRESGPTAAIIMLRVPKKIKLSDIKAELVSQGFSELKDLFWCGRDSAHAVVKFSTVEKATEAFETKPFKIQGESLNLDYYHE | soluble |
| MGSDKIHHHHHHMKRVQNLLVAVGLSPNYHRRTYPSGKKSLVVRFYATLTPGLEDVAAKEVESFGCKVEEIRERRGRIFFSGEKSAIPLLNHFSRTLERLNVLLLRCEVEGLDDIYAAVKGLDFSFVKGKSFAIRSLRVGEHDFTSMDIARVAGQAVIDSFMESYGERLKVNLNQPDVIIRVELVDSELFVGVDTTGDDAMHKRWWRVYNHPAHLNAAIACGMLRIADWKVDESLIDPMCGSGTIPIEAALMVRNVPNLRDFAYKKLCEWELAFEPNEVRLKLYGMEKFRKHLVGAIRNAVNAGVADTIEFRQGDATEMTGEYDVIITNPPYGLRIHRKGAIERLYHSFARAAKRCMNQNSRLVIITAEHRVFANAAEEAGLQCTHERFVKYGGLLTKIMVFMI | not soluble |
| MGSDKIHHHHHHMKNALIQSGPDTTGRRPSRKVLIYGLNYAPELTGIGKYSAEMAESLADVGYEVRVICAPPYYPEWRIGAGHSAWRYRTEQRAAVRIQRAPVWVPSRPSGLKRLLHLASFAVSSLPTVFAQLFWRPDIVIAVAPSLMNIPAALMFGKMARARTWLHIQDYEVDAAFELGMLKGKRLRQFALGVESWLMRRFDVVSTISARMIEHGRNKGVDSPRLFALPNWVDVNVIFPLDRPSLYRTALNIPDEAIVVLYSGNMGAKQGIEVLAQAAASLAHRSDIHFVLCGDGPYKVNLVEQCGHLANCTFLSLQPFDKLNDLLNVADIHVLPQRADAADLVMPSKLTGMLASGRSIIAMARAGTELFDVVSPRGVTVPPEDVQALVAAIENLADDVDQRTRLGAAARAYAETELSRRAVIERLDGRFQMLCDRVRGRSVFT | not soluble |
| MGSDKIHHHHHHMTALDFLPNPPIKQELITPLFHLPYPNPSPIDPKVYKEQSNQAKALAQVFKKEEAHDFDYSSGSFLELFLALALEKKKLAIASSLHYNALKAAREVQKLGIEIFWLHPDVKSGVIEPNSLQEARTRGFELFFLPWANEDLLTLNPLESYGFSLDERLFVEASYPLALGIALPLLEKAHWLINGEILGIPRGYGAILGGEIPLHRPLMRANLFGVLHAALKAREILIENDDQKTLFYEHLSALLGENLSLFAPLKSCLPNALPLRFKGIRARSLIQALLLEKITSLNGQECLFGFSKPSSVLQSMGYDEDEARELLSVSFLPFGSIEELERIAKILALRYKQIHLYS | not soluble |
| MLREIPTHLIGGPLGAGKTSLIRSLLAQKPAGERWAVLVNEFGEIGLDAALLATDVDGVAIGEVAGGCLCCVNGVPFQVGLGRLLRRARPDRLFIEPSGLGHPQALWKQLQAPPWSGVLALQPLVVVLDAAALASGQPLPEAQEQALEAAGMLLLNKSETLDATQRCAVRARLPVLPLRWSVRGHLALRDLPTSVAGEGSATTWAALPEAPAQLGTVLLAERPLRAVREQDGQFAIGWRRRCVSIGPQWTPGLEHHHHHH | not soluble |
| MGSDKIHHHHHHMSLLKITQGLFRLSDTRMLRLDELTLEQNQCWAFVGANGSGKSALARALSGELPLLSGERTTGFQHPVRLSFEQLQKLVSDEWQRNNTDLLSEGEDDTGRTTAEVIQDSLNDPTRCQQLACQFGIAHLLERRFKYLSTGETRKAMLCQALMPQPDLLILDEPFDGLDVTSRQQLADELRKLVDTGYTLVLILNRFDDIPDFINHIGVLADCTLTRIGEREAILSEALVAQLAFSEKLSGSSLPEPEDPQRHVTLPADEAHILLRNGVVQYNDRPILHELTWEVFPGQHWQIIGPNGAGKSTLLSLITGDHPQGYSNDLTLFGRKRGSGETIWDIKRHIGYVSSSLHLDYRVSTSVRNVILSGFFDSIGIYQAVSDRQRHLTEQWLILLGLSGAIADTPFQSLSWGQQRLTLIARALVKHPALLILDEPLQGLDPLNRQLVRRWLDILIGEGETQLLFVSHHAEDAPECITHRLTFVPHNDIYRYQIDELCK | not soluble |
| MTTIEIDAPAGPIDALLGLPPGQGPWPGVVVVHDAVGYVPDNKLISERIARAGYVVLTPNMYARGGRARCITRVFRELLTKRGRALDDILAARDHLLAMPECSGRVGIVGFCMGGQFALVLSPRGFGATAPFYGTPLPRHLSETLNGACPIVASFGTRDPLGIGAANRLRKVTAAKNIPADIKSYPGAGHSFANKLPGQPLVRIAGFGYNEAATEDAWRRVFEFFGQHLRAGSPGEP | soluble |
| MGHHHHHHSHMYAFTLHPNAQHRRTRIGTSVDLSCLLCFRIGGFYALSPYPGLRLISLNMNFCSRENFWLLINSTDPAGQLQWLVGELQAAEDRGDKVRASSGNTVVLGDKQAPVELEHLWAQKFYFPGIPNKCSLGIQLMVTVESLHSVPLSLARAAWTPGCPDYHP | not soluble |
| MRVIFMRQVTKSKKIKILPYPEWLVKAGMSKGIDHDRQHLGIILAAGEMIKVRQVNAEYKEKLKLYLLNDNKNTQRSISFNTDWIELSVDAISVPFINTPYSDGIIPEIVFEYPDTSKLLPVYEKGEDESIFFESWDKQNAEFGVVESEYVIILIPEVSKDRLKSFSTSGGIDTVLGFYQDIFSFNNSLAGLSFEPQRYSDGNTRNRYFAKADKGGGGAAYYSNNWIASSSGSINTFWLSPNATNWGCLHEIAHGYQGGFIDDKYFSTREVWNNIYAACYQDVMLGAEKFNKGWLYNFGKQKEVEKSILNNINNGKEVNAWGERSKLYFIMLMLEKAGVNCFTHFNQIYRERKNTDQSVGSVLDMLSNSFATVENRVDVTLFLQMVGGHISKNQYQRNLFSHAKAVYPLNQLLQGDELTAVKKTLDLNSELSLVDVDSIEFTDIKSNLTLQFSIDDFAQIYGEELLILNGDNYVYNQSIMDKKQTLYNLPVGAYTLRIPTGRNKKYAPQINYLIVKNEDSQTQVDFVHRIGSPIVSQKISLQGLNDYTFATIFFDQENDTVSVDITKTKPHYHFPGMYARIRIKDKDNNELLNEVITGTNQSLSKNDFPLSSCYVIDIFHKEPGRVKLTPAYKGVIDNKSSYNEFIITPYGLQNIKLNNDPKVFLLENIKSAAEMLRSHPIMWHANFSEAKDNIYLAIDIFPSPQKEGLLEQYADCISSYYEKPNEDLGNAFSFIFKGINDREFLTTKLNLVTKKLEVKIVSGTPHSGFKRTYAVLRYFNADGNELLNLDIIGSKKQAGQEWVFPISGYGGEKLYLQHVEPKNRLVITNIMQGIRLSSRTSIQTYEIESLGLSRCT | not soluble |
| MGSDKIHHHHHHMNVLLSRKDTIRFLILSELMVNPECNQRDIAKKLGLTPQAISEHFKEMVSEGFINVVHKGYYEVTRKGEEWMSRNLIDLHLFSEELLKKIYSKTVVAIAKGRIAENDSVRYWFGDGYIFAERSAKGNGVALTSAEDGEDVLIKPTGSFEPPEKGEIIIVKVPGVAEGGSRKVDLDSFRELVKSRPTSIVVAIGIEALVTCRKIRVEPIFFGAKEVCIEAAHHGSGVIVACTESMLNDLLRSLIDEGLEFEIKEFVKAT | not soluble |
| MGSDKIHHHHHHMALASTLATCLNSKNTQYDIIHHPYTLSSMATAEAAHIPGDRLAKTLLLEDEMGYVAAVIPSNHHLHMAALCEQTGRKLVLAHEDEIREVFKDCDLGAIPPVAMAYGMQTYVDDSLMKHPDVYFEAGDHQELVHMSMDQFSSLMSDAEQGHFSRRMM | not soluble |
| MGSDKIHHHHHHMDQEQLDALANAALEELARRNYGDFFYLSHGKQWDLLRHQKYITDRLQKIIDGEQKYYIIEIPPQHGKSTVITETFPAYYLMRHPDSLVMVVSYSKELFQKFGRKNREKFRLFSDQLFGLQISSETSSVSEWGVEGHLGSLYSTSILGGATGRGARLLIIDDPIKNRAEAESKTIRDKIYNEWQDTFYSRLTADASVIVIMTRWHEDDLAGRLLKEQTLPWEEIKIPAIAEDDDLLGRKPGEALAPEIGKDEEWAAKTKAVTGSRGWAALYQQRPTPAGGNIFKRSWIKFYVPTLSKKIELSLGDDVVILPRLFDRQAQSWDCTFKDTETSDYVSGQVWGKKRADFYLLDRHHERMGIVETMKAIDAMAAKWPKARGIYIEDKANGTAVIEMLKNELSGIIAVNPEGGKEVRANAVAPIWEAGNVYLPHPLVCPWVDDFINELVAFPNAEHDDDVDSMTQILNKMIGKVSLRERYLDN | not soluble |
| MASQPTNAVSAEQLMLSKMQAMQAQVQPPEFIVSANPLDQQALNAPLSFSQAMTNVLDTVNQHQSAASQKMTAVETGQSDDLVGAMVASQKASLSFNALMQVRNKVVASFEDIMKMPV | not soluble |
| MKVDKETIEYVANLARLRLSEKEKEKLALDLESIISYVDKLNELDTSKIIPTDHVIPIKNVFRDDEVRDSYPKDKMLMNAPEKEDGCFKVPKVVE | soluble |
| SAEDELVEIVPNMNMEQLNFISGDFGRFIPQIPTKVPLWLAVALKRRGKCTFRPPGWMSVDNLTQILEAERESQSTFQALPFSYVEIARLLFDHARDDIPDMYMVRSLVEDIRDVRLHKLETNLGSFQGTSAVKISNVSAMEVNIVRPFVIRALEAFYKHDKPEADVDRDTRSSRQQRETNNEPRRPLRQR | soluble |
| MSDLLDTVRGLAKKTDSKILMVVLDGVGGLPLTVNGDTELATARTPNLDALAQESQLGQLELVGAGITPGSGPGHLSLFGYDPLKYVVGRGALSAVGIGVKLNRGDVAVRGNFATLGAGRLILDRRAGRPSDEKNAEIVAKLRAAIPEIDGVAVEVYTESEHRFVVVFRAPEGQPLGANISDVDPQVTGVEPKTAIANDPSSEVTAGLINTFVARAEVALADEPQVNGVLFRGYSDVPHFPSFEDAYQLKAACIASYPMYKGLASLVGMDVLPVEGHEDALEGKVKALRENWAKYDFFYFHIKKTDSTGEDGDFAEKVHKIELFDELLPQLLELQPDVIAVVGDHSTPSKLKSHSWHPVPLLIRSNYGRRDPAQRYTEEEAARGTLGLRHGPDLMPLLMANALKLNKYGALEHHHHHH | soluble |
| MSSEPPPPPQPPTHQASVGLLDTPRSRERSPSPLRGNVVPSPLPTRRTRTFSATVRASQGPVYKGVCKCFCRSKGHGFITPADGGPDIFLHISDVEGEYVPVEGDEVTYKMCSIPPKNEKLQAVEVVITHLAPGTKHETWSGHVISS | soluble |
